# Measurements as given in the nanobody polyreactivity screen of Harvey et al. (2022).
# Assay: yeast display, Sf9 membrane polyspecificity reagent, FACS + sequencing; frameworks hold sequencing errors
# Summary of the method: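 Polyreactivity labels are assigned by the sorting gate from which each nanobody was recovered. The gates were low and high (top ~1%), set on anti-HA fluorescence for expression and streptavidin fluorescence for reagent binding. Before sorting, galactose-induced (36–48 hours) yeast display cells were stained for 1 hour at 4 °C with 10% biotinylated, detergent-solubilized Sf9 membrane reagent.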
row,Sequence,polyreactivity (PSR sort gate)
1,QVQLVESGGGLVQAGGSLRLSCAASGLIFYSNAMGWYRQAPGKEREFVAAITRRGGSTYYADSVKGRFTISRDNAKNTVYLQMNSLKPEDTAVYYCNARYYHKRSTRVIFQYDYWGQGTQVTVSS,high polyreactivity
2,QVQLVESGGGLVQAGGSLRLSCAASGLIFYSYAMGWYRQAPGKERELVAAITGGGSTNYADSVKGRFTISRDNAKNTVYLPMHSLKPEDTAVYYCAAAFTLRKYDYWGQGTQVTVSS,low polyreactivity
3,QVQLVESGGGLVQAGGSLRLSCAASGLIFYTNAMGWYRQAPGKERELVAAIDRASTNYADSVKGRFTISRDNAKNTVYLQMNSLKPEDTAVYYCAAGAGRSTFTVGYWGQGTQVTVSS,low polyreactivity
4,QVQLVESGGGLVQAGGSLRLSCAASGLIFYTYAMGWYRQAPGKEREFVAAISRRGGSTYYADSVKGRFTISRDNAKNTVYLQMNSLKPEDTAVYYCNARYTYPRPYEEYYYWGQGTQVTVSS,high polyreactivity
5,QVQLVESGGGLVQAGGSLRLSCAASGLIFYTYAMGWYRQAPGKERELVADINRSDGSTYYADSVKGRFTISRDNAKNTVYLQMNRLKPEDTAVYYCAVVGPYYSRFGGRYYYWGQGTQVTVSS,low polyreactivity
6,QVQLVESGGGLVQAGGSLRLSCAASGLIFYVYAMGWYRQAPGKERELVADISTAGGITNYADSVKGRFTISRDNAKNTVYLQMNSLKPEDTAVYYCAATQPWYNTRTRYGSWGQGTQVTVSS,low polyreactivity
7,QVQLVESGGGLVQAGGSLRLSCAASGLIFYVYAMGWYRQAPGKERELVASITWSGGRTYYADSVKGRFTISRDNAKNTVYLQMNSLKPEDTAVYFCAKDWWGGPPNVYHSEYEYWGQGTQVTVSS,low polyreactivity
8,QVQLVESGGGLVQAGGSLRLSCAASGLIIDGYAMGWYRQAPGKERELVATITVSGTSTYYADSVKGRFTISRDNAKNTVYLQMNSLKPEDTAVYYCATDRNYGYYFVEYDHDYWGQGTQVTVSS,low polyreactivity
9,QVQLVESGGGLVQAGGSLRLSCAASGLIIPVYVMGWYRQAPGKERELVADITTVGSTYADSVKGRFTISRDNAKNTVYLQMNSLQPEDTAVYYCAADPPAPQYWWDHGNYWGQGTQVTVSS,low polyreactivity
10,QVQLVESGGGLVQAGGSLRLSCAASGLILAPNAMGWYRQAPGKERELVAAITFRGVRTYYADSVKGRFTISRDNEKNTVYLQMNSLKPEDTAVYYCAAAVSKHYPYNYWGQGTQVSVSS,high polyreactivity
11,QVQLVESGGGLVQAGGSLRLSCAASGLILDGNAMGWYRTAPGKERELVAAITRSGGRTYYADSVKGRFTISRDNAKNTVYFQMNSLKPEDTAVYYCAALGWSGRYRYDYWGQGTQVTVSS,high polyreactivity
12,QVQLVESGGGLVQAGGSLRLSCAASGLILGPYAMGWYRKAPGKERELVAAITRGGGTYYADSVKGRFTISRDNAKNTVYLQMNSLKPEDTAVYDCARIYYVSIYRYDYWGQGTQVTVSS,high polyreactivity
13,QVQLVESGGGLVQAGGSLRLSCAASGLILHKYAMGWYRQAPGKERELVASINSGANTNYADSVKGRFTISRDNAKNTVYLQMNSLKPEDTAVYYCNADPGFRDYYWGQGTQVNVSS,low polyreactivity
14,QVQLVESGGGLVQAGGSLRLSCAASGLILKYYAMGWDRPAPGTEREFDAALTRRGGITYYADSVKGRFSISRDNAKNTVYLQMNSLKPEDTAVYYCAADPKLGSLAYWRYSYPLYDYWGQGTQVTVSS,low polyreactivity
15,QVQLVESGGGLVQAGGSLRLSCAASGLILNSYDMGWYRQAPGKERELVAAITRSGGNTFYADSVKGRFKISRDNAKNTVYLQMNSLNPEDTAVYYCNAYYTYWSQLYYWGQGTQVTVSS,high polyreactivity
16,QVQLVESGGGLVQAGGSLRLSCAASGLILRYNGMGWYRQAPGKERELVAAISSNAGTTSYADSVKGRFTISRDNAKNTVYLQMNSLKPEDTAVYWGQGTQVTVSS,low polyreactivity
17,QVQLVESGGGLVQAGGSLRLSCAASGLILSRNTMGWYRQAPGKERELVAAITRRGGSTYYADSVKGRFTISRDNAKNTVYLQMNSLKPEDTAVYYCRLKVGTTSRWSYDYWGQGTQVTVSS,high polyreactivity
18,QVQLVESGGGLVQAGGSLRLSCAASGLILSSNAMGWYRQAPGKERELVATINRSGASTYYADSVKGRFTISRDNAKNTVYLQMNSLKPEDTAVYYCNTATSRAYRYDYWGQGSQVTVSS,low polyreactivity
19,QVQLVESGGGLVQAGGSLRLSCAASGLILVHYAMGWYRQAPGKERELVAAISAGGGSTYYADSVKGRFTISRDNAKNTVYLQMTSLKPEDTAVYYCNARVVNYFRPRTGAREYDYWGQGTQVTVSS,high polyreactivity
20,QVQLVESGGGLVQAGGSLRLSCAASGLILVYYAMGWYRQAPGKERELVAAITPGGSTKYADSVKGRFTISRDNAKNTVYLQMNSLKPEDTAVYYCYALSGPYWYSVYQSHQDDYWGQGTQVTVSS,low polyreactivity
21,QVQLVESGGGLVQAGGSLRLSCAASGLILYWYAMGWYRQAPGKERELVAAISISGGSTYYADSVKGRFTISRDNAKNTVYLQMNSLKPEDTAVYYCAAVYFYSWEGDGDYWGQGTQVTVSS,low polyreactivity
22,QVQLVESGGGLVQAGGSLRLSCAASGLILYYYDMGWYRQAPGKERELVAAISWNGDDTYYADSVKGRFTISRDNAKNTVYLQMNSLKPEDTAVYYCAAEGPPQTDDYWGQATQVTVSS,high polyreactivity

row,Sequence,polyreactivity (PSR sort gate)
1,QVQLVESGGGLVQAGGSLRLSCAASGLISIFYTMGWYRQAPGKERELVAAITSGGSSTYYADSVKGRFTISRDNAKNTVYLQMNCLIPVDTAVYYCAAEPGFYYYWGQGTQVTVSS,low polyreactivity
2,QVQLVESGGGLVQAGGSLRLSCAASGLISWLYVMGWYRQAPGKERELVAAIRYSGGRTYYADSVKGRFTISRDNAKNTVYLQMNSLKPEDTAVYYCAAEEQVVKAHGDYWGQGTQVTVSS,low polyreactivity
3,QVQLVESGGGLVQAGGSLRLSCAASGLIVGGYTMGWYRQAPGKERELVAAIDSGGSTKYADSVKGRFTISRDNAKNTVYLQMNSLKPEDTAVYYCAARDYYAWRYRYHHEVSEFDYWGQGTQVTVSS,low polyreactivity
4,QVQLVESGGGLVQAGGSLRLSCAASGLIYWYAMGWYRQAPGKERELVAAISSNGGSTYYADSVKGRFTISRDNAKNTVYLQMNSLKPEDTAVYYCAAEDYYIYREPYDYWGQGTQVTVSS,low polyreactivity
5,QVQLVESGGGLVQAGGSLRLSCAASGLIYYRNAMGWYRQAPGKERELVAAISSDGSTYYADSVKGRFTISRDNPKNTVYLQMNSLKAEDTAVFYCAADYREFDAYGAARTLDFDYWGQGTQVTVSS,low polyreactivity
6,QVQLVESGGGLVQAGGSLRLSCAASGLIYYRYAMGWYRQAPGKERELVAAITTNGARTYYADSVKGRFTISRDNAKNTVYLQMNSLKPEDTAVYYCAAYGAGKFWAEHNYWGQGTQVTVSS,high polyreactivity
7,QVQLVESGGGLVQAGGSLRLSCAASGLNFVQYVMGWYRQATGKERELVAAITDDGNTYYADSVKGRFTISRDNAKNTVYLQMNSLKPEDTEVYYCNAVLRSYDFWPGYGYWGQGTQVTVSS,low polyreactivity
8,QVQLVESGGGLVQAGGSLRLSCAASGLNFWLNAMGWYRQAPGKERELVAAISRGGSTNYADSVKGRFTNSRDNAKNTVYLQMNSLKPEDTAVYYCAAGSRRAACYDYSYPYGYWGQGSQVTVSS,high polyreactivity
9,QVQLVESGGGLVQAGGSLRLSCAASGLPFRFNALGWNRQAPGKERELVARISAGGGSTYYADSVKGRFTISRDNAKNTVYLQMNSLKPEDTAVYYCAVDKSTEFSSGPHVAGDDSWGQGTQVTVSS,low polyreactivity
10,QVQLVESGGGLVQAGGSLRLSCAASGLSSGFNVMGWYRQAPGKERELVAAIRSTGSPKYADSVKGRFTISRDNAKNTVYLQMNSLKPEDTAVYYCFRYSFYLNYWGQGTQVTVSS,high polyreactivity
11,QVQLVESGGGLVQAGGSLRLSCAASGLTCTRNAMGWYRQAPGKEREFVAAIRWSAGSTYYADSVKGRFTISRDNAKNTVYLQMNSLTPEDTAVSYCNAALNVSGHYPNDYWGQGTQVTVSS,low polyreactivity
12,QVQLVESGGGLVQAGGSLRLSCAASGLTFADYAMGWYRQAPGKERELVAAISRRGGSTYYADSVKGRFTISRDNAKNTVYLQMNSLKPEDTAVYYCAAYAYDVAFKRYKFDYWGQGTQVTVSS,high polyreactivity
13,QVQLVESGGGLVQAGGSLRLSCAASGLTFAGYAMGWYRQAPGKERELVAAITYSTGRTYYADSVKGRFTISRDNAKTTVYFQMNSLKPEDTAVYYCAALLRGQDRTMDYWGQGTQVTVSS,high polyreactivity
14,QVQLVESGGGLVQAGGSLRLSCAASGLTFASYAMGWYRQAPGKERELVAAISSSGRTYYADSVKGRFTISRDNAKNTVYLQMNSLKPEDTAVYYCATRGLSRYYDYYYWGQGTQVTVSS,high polyreactivity
15,QVQLVESGGGLVQAGGSLRLSCAASGLTFASYAMGWYRQAPGKERELVARISRSGGSTYYADSVKGRFTISRDNAKNTVYLQMNSLKPEDTAVYYCAADYIFRRYPVGGIYDYDYWGQGTQVTVSS,high polyreactivity
16,QVQLVESGGGLVQAGGSLRLSCAASGLTFAWYAMGWYRQAPGKARELVAVISNGGSTNDADSVKRRFTISRDNAKNTVYLQMNSLKPDDTAVYYCAAGWVWSGNDYYYWGQGTQVTVSS,low polyreactivity
17,QVQLVESGGGLVQAGGSLRLSCAASGLTFAYYAMGWYRQAPGKDRELVAAISWNGGRTYYADSVKGRFTISRDNAKNTVYLQMNSLKPEDTAVYYCAAQVTSSFYWGQGTQVTVSS,high polyreactivity
18,QVQLVESGGGLVQAGGSLRLSCAASGLTFAYYAMGWYRQPPGKERELVAAITSGDGTNYADSVKGRFTISRDNAKNTVYLQMNSLKPEDTAVYYCATDTWSPGYDYWGQGTQVTVSS,low polyreactivity
19,QVQLVESGGGLVQAGGSLRLSCAASGLTFAYYVMGWYRQAPGKERELVATITRGGDTYYADSVKGRFTISRANAKNTVYVQMNSLTPEDTAVYYCNAVWRVKYRRGLDYWGQGTQVTVSS,high polyreactivity
20,QVQLVESGGGLVQAGGSLRLSCAASGLTFAYYVMGWYRQAPGKERELVATITRGGDTYYADSVKGRFTISRDNAKITVYLQMYSLKPEDTAVYYCNAYLRSGSMDYWGQGTQVTVSS,high polyreactivity
21,QVQLVESGGGLVQAGGSLRLSCAASGLTFDGNTMGWYRQAPGKERELVAAISIDGGNTYADSVKGRFTISRDNAKNTVYLQMNSLKPEDTAVYYDYWGQGTEVTVSS,low polyreactivity
